Legend:
[1] = target: T1, human CD71 extracellular domain (human, UniProt P02786 89-760); test: primary ELISA screen, Screen 4; signal on hCD71 over signal on HSA
T1 construct: also called hCD71; CD71-ECD

[2] = target: T2, apical domain of human CD71 (human, UniProt P02786 189-383, limits assumed); test: primary ELISA screen, Screen 4; signal on apical domain over signal on HSA
T2 construct: domain: apical domain; Screen 4 panned against human apical domains; also called human apical domain

[3] = target: T1, human CD71 extracellular domain; test: primary ELISA screen, Screen 4, luminescence; note: test concentration or dose not given here
[4] = target: T2, apical domain of human CD71; test: primary ELISA screen, Screen 4, luminescence; note: test concentration or dose not given here

T2 sequence (P02786 189-383 limits assumed): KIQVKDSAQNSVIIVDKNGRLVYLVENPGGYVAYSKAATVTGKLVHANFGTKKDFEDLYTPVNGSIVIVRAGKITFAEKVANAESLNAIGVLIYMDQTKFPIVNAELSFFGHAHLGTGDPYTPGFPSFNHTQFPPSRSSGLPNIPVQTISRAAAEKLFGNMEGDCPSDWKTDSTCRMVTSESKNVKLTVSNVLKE
T1 sequence (P02786 89-760): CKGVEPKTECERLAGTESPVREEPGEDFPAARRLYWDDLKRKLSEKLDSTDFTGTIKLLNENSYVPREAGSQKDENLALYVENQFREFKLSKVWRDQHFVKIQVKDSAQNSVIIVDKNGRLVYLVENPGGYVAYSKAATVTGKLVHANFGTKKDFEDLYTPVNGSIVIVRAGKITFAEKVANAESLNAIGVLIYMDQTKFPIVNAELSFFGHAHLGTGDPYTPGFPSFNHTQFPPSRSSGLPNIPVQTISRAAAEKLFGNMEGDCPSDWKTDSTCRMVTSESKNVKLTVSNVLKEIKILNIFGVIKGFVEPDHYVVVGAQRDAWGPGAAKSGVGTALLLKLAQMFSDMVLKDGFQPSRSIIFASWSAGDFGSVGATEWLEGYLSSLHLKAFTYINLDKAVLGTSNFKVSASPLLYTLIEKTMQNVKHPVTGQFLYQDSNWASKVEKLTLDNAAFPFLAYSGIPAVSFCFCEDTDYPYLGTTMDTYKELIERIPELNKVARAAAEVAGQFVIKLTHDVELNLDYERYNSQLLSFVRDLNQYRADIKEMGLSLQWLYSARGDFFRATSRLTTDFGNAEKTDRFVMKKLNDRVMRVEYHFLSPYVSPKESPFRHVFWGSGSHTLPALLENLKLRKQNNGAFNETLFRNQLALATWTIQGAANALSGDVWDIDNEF

Binder	hCD71:HSA [1] [ratio]	Apical domain:HSA [2] [ratio]	hCD71, RLU [3] [RLU]	Apical domain, RLU [4] [RLU]
CD71-binding FN3 domain of SEQ ID NO: 552 (designed binder) MLPAPKNLVVSRVTEDSARLSWTAPDAAFDSFFIGYLEPQPPGEAIHLFVPGSERSYDLTGLKPGTEYNVTIQGVKGGFPSMPLSAIFTT	119	137	4.95e+06	5.7e+06
CD71-binding FN3 domain of SEQ ID NO: 547 (designed binder) MLPAPKNLVVSRVTEDSARLSWTAPDAAFDSFFIGYLEPQPPGEAIHLIVPGSERSYDLTGLKPGTEYNVTIQGVKGGFPSDPLVASFTT	277	322	4.59e+06	5.35e+06
CD71-binding FN3 domain of SEQ ID NO: 548 (designed binder) MLPAPKNLVVSRVTEDSARLSWTAPDAAFDSFFIGYLEPQPPGEAIYLFVPGSERSYDLTGLKPGTEYNVTIQGVKGGFPSMPLSAIFTT	230	257	4.73e+06	5.29e+06

More lines, now with the values ahead:

hCD71:HSA [1] [ratio]	Apical domain:HSA [2] [ratio]	hCD71, RLU [3] [RLU]	Apical domain, RLU [4] [RLU]	Binder
45	158	1.17e+06	4.07e+06	CD71-binding FN3 domain of SEQ ID NO: 551 (designed binder) MLPAPKNLVVSRVTEDSARLSWTAPDAAFDSFEIAYFETCRTGEAIVLTVPGSERSYDLTGLKPGTEYWVQIGGVKGGNWSAPLSAIFTT
198	242	2.86e+06	3.49e+06	CD71-binding FN3 domain of SEQ ID NO: 549 (designed binder) MLPAPKNLVVSRVTEDSARLSWTAPDAAFDSFFIGYLEPQPPGEAISLWVPGSERSYDLTGLKPGTEYNVTIQGVKGGFPSMPLSAIFTT
141	170	4.79e+06	5.8e+06	CD71-binding FN3 domain of SEQ ID NO: 550 (designed binder) MLPAPKNLVVSRVTEDSARLSWTAPDAAFDSFFIGYLEPQPPGEAIHLFVPGSERSYDLTGLKPGTEYNVTIQGVKGGFPSIPLYARFTT

From patent publication US20260151494A1 (ARO BIOTHERAPEUTICS, published 2026)
